Laboratory results reported in article PMC8280789.

Legend:
Assay in all cases: ELISA; dose-response: host component coated (1 μg/well); rLIC13086 at rising concentrations (0–5 μM in the methods; 0–0.5 μM or 0–5 μM in the legends), 2 h at 37°C; detected with HRP-conjugated anti-His mAb; KD from a non-linear fit of the specific binding equation (GraphPad Prism)
[1] = target: C4BP (human)
[2] = target: C4b (human)
[3] = target: C5b6 (human) (UniProt P13671)
[4] = target: C7 (human) (UniProt P10643)
[5] = target: C8 (human)
[6] = target: C9 (human) (UniProt P02748)
UniProt P02748, sequence (P02748 22-559): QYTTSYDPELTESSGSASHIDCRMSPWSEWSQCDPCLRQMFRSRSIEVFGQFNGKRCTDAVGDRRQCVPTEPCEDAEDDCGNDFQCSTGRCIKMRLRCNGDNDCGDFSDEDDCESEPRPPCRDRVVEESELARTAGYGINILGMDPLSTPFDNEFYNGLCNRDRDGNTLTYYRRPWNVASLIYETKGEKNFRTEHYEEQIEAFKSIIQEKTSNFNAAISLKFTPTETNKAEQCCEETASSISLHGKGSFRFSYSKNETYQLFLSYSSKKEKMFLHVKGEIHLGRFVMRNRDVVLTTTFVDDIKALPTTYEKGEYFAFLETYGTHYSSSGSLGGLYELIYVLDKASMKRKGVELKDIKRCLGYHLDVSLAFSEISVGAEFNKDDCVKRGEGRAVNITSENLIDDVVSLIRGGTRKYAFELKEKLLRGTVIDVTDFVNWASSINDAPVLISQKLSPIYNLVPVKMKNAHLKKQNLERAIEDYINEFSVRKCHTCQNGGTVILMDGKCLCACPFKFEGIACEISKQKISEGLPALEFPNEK

[7] = target: fibrinogen (human)
[8] = target: laminin (human)
[9] = target: plasma fibronectin (human)
plasma fibronectin (human), sequence (P02751 other isoform, or with tags, fused parts or gaps, chain 1 of 2): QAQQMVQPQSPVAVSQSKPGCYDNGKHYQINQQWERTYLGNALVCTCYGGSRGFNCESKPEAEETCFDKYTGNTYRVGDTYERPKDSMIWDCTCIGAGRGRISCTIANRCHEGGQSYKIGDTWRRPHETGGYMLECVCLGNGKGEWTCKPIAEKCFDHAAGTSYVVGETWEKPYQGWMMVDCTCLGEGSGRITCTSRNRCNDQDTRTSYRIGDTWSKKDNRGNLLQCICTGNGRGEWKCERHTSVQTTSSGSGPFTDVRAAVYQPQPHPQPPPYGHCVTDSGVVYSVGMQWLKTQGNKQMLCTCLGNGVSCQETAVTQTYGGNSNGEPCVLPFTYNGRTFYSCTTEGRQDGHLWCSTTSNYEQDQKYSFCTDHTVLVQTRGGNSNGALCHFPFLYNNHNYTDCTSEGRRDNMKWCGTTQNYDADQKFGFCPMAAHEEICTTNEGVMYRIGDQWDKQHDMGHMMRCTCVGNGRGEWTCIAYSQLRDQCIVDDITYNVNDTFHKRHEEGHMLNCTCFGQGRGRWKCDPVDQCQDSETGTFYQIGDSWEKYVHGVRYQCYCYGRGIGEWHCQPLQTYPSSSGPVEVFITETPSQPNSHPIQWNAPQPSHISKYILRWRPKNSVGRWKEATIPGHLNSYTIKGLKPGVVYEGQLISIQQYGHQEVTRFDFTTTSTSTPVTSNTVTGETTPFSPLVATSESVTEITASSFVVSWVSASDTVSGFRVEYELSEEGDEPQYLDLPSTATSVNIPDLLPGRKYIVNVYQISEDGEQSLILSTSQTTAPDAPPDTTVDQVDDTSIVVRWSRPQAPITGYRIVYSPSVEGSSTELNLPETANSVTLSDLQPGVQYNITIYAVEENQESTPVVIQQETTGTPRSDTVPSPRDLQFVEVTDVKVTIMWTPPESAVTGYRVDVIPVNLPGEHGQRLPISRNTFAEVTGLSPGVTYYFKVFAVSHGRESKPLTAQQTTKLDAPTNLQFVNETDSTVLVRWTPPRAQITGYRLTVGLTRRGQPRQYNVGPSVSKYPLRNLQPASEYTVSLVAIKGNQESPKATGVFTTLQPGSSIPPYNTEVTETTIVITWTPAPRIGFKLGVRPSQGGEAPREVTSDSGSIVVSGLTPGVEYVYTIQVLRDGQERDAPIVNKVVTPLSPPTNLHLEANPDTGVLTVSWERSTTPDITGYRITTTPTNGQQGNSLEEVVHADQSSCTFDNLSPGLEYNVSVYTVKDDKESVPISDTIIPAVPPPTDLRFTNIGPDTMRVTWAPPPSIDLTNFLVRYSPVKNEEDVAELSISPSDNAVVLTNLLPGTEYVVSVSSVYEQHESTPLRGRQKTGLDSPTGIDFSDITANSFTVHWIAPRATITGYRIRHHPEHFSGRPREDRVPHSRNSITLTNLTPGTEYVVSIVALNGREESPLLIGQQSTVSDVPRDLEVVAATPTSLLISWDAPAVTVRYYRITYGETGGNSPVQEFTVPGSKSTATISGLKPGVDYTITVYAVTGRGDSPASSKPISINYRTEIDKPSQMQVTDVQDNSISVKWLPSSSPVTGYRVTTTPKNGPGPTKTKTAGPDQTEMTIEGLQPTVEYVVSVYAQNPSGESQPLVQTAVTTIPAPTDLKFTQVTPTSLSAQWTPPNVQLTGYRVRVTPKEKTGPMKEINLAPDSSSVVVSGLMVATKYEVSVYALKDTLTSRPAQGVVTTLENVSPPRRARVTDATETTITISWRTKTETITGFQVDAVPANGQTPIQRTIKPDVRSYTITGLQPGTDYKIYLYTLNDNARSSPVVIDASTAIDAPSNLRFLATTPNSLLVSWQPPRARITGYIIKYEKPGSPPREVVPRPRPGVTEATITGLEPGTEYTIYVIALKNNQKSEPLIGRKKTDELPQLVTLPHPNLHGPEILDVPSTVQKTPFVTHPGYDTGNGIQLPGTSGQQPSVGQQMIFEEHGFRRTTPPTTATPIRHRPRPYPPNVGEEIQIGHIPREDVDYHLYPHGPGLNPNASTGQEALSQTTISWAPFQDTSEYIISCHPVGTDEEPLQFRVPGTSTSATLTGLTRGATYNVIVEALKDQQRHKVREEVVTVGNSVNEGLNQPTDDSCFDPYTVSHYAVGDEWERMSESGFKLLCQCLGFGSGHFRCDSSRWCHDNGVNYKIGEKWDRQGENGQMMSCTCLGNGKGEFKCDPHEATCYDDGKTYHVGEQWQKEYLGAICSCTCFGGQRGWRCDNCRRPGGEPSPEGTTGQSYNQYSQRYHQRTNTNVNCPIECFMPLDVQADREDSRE
plasma fibronectin (human), sequence (P02751 other isoform, or with tags, fused parts or gaps, chain 2 of 2): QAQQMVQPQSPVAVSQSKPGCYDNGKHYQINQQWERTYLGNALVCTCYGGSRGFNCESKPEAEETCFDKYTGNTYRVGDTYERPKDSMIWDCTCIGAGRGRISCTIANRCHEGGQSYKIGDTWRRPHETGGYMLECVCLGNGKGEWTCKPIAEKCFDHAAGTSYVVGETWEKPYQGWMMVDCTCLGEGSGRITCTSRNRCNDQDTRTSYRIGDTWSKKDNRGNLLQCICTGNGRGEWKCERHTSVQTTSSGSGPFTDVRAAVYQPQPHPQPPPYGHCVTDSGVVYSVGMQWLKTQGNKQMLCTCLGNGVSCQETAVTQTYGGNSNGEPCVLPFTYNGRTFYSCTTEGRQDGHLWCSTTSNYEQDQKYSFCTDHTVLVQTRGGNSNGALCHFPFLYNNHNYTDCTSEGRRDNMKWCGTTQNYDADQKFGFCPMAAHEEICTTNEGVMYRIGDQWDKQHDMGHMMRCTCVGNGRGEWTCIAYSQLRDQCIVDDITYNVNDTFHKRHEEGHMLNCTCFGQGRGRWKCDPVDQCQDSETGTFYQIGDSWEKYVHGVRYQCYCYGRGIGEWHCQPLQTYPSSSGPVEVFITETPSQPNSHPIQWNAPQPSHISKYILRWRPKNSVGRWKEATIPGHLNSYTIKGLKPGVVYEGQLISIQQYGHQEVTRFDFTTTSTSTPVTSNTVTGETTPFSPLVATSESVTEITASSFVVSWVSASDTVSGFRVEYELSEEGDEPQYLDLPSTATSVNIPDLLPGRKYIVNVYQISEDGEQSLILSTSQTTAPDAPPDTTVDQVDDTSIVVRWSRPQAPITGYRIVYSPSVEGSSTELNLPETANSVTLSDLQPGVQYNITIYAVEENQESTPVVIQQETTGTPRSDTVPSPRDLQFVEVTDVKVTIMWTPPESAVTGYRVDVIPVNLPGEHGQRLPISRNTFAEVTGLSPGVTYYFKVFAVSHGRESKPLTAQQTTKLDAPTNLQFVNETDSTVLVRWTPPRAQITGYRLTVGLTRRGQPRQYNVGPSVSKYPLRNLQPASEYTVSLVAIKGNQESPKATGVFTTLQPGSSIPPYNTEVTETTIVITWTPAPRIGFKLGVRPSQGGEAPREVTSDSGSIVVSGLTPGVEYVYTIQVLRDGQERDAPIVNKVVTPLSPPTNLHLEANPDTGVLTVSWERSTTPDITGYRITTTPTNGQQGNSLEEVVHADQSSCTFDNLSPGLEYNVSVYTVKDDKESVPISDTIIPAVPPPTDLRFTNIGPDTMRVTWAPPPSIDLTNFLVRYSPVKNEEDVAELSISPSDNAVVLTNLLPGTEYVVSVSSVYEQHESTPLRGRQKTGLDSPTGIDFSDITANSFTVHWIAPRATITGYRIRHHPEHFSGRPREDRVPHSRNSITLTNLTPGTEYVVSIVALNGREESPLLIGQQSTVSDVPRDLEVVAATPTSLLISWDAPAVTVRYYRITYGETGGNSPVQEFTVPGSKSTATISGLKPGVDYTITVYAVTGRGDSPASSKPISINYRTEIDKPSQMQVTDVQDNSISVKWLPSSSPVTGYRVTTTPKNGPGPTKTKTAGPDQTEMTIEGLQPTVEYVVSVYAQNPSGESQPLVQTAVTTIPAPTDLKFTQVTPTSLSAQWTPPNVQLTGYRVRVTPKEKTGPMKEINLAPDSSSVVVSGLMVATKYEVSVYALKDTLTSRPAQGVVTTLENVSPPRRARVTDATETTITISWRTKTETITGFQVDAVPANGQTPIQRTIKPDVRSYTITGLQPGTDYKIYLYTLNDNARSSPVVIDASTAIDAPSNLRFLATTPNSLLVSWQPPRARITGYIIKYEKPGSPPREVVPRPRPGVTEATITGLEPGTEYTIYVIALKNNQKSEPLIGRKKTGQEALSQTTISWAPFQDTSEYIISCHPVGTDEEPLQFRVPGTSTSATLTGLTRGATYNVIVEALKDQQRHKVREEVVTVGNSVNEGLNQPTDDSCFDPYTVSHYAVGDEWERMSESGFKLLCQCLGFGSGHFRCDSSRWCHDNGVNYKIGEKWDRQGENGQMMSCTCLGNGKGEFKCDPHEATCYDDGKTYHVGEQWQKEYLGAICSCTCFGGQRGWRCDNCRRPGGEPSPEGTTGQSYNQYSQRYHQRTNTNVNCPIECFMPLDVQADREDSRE

[10] = target: plasminogen (human)

recombinant protein LIC13086 (natural protein)
Kd [1]: 0.0089 µM
Kd [2]: 0.162 µM
Kd [3]: 0.0403 µM
Kd [4]: 0.0358 µM
Kd [5]: 0.134 µM
Kd [6]: 0.818 µM
Kd [7]: 0.32 µM
Kd [8]: 0.0187 µM
Kd [9]: 0.0058 µM
Kd [10]: 0.0101 µM
